The results in this text go back to patent US20200231674A1 (published 2020).

The target in this test is T1, human CD8 alpha (on transfected HEK293T cells) (human, UniProt P01732 22-235).
T1 construct: whole, on cells
Kind of test: FACS on HEK293-T cells transfected with human CD8a (Example 2, FIG. 4). As to the method: The binding characteristics of various VHHs (as described in Example 1) were tested by flow cytometry. HEK293-T cells were transfected with a human CD8a expression plasmid and stained with the His-tagged VHHs at […], followed by staining with an anti-His Fitc conjugated antibody. Binding was measured by detecting cellular fluorescence via flow cytometry.

T1 sequence (P01732 22-235): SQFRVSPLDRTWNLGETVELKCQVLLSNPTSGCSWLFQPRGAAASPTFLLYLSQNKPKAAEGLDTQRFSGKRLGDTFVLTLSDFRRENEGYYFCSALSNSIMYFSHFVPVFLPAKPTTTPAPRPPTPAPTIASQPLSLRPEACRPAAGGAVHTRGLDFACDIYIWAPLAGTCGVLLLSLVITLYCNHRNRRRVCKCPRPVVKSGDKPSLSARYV

B1: 2CDA 74 (VHH)
VHH: QVQLQESGGGLVQAGGSLRLSCAVSGFTFDNYAIGWFRQAPGKEREGVSCISRSDGSTYYADSVRGRFTISSDNAKNTVYLQMNSLKPEDTAVYYCAAETSADSGEFRFGWVLKPSLYDYWGQGTQVTVSS
notes: entry carries AAA-HA-His6 tail (pMECS format); free cysteine in CDR2 at position 50
For B1, the binding result was “binds”.
